Assay results taken from IntAct's records for PubMed 16619031.

B1: DNA replication regulator SLD2 (Saccharomyces cerevisiae), P34252 (parent)
chain: MYSFELDKLKIELKTWEHDFIDKNKREPTRDDIKSLRTVRQMYKQYSTLKKKQSLQRQKVDTQESVELPAHKKDHDEVVEIGPTPQVYGKAISIFDMNLSPIKPIYMTFTNNIDVNNDNSKTISNESSPRKTILLKSSPADRTLVAEPISSVKRQLNFQMLNASSTRTPTSSPCKNRNGKLVEIKKCSPTINPPLESGKPSGYYGPNSPLKLDEENIHLNISLNSSTKRRLQIAYPSLQKTPSKDQADISTSFSPSPLIRRPLTKSLIELAREHTEIVKEFGVLQEEDIEEEEEGEEGENGYDEKNHEDDFGLEDELIRPKVVKDIFQEDDDNDDSQAREDTFIRKRPKRRKVIRRLRDNDPETETAGFERDVHKELVKLKRRKVAEFLGSTSQISDTEFEHDPEASSGVVSSEQKPTAKRKGRKKYNLVSNNFRRLKLPKKNRFSNGRWGRR
partner: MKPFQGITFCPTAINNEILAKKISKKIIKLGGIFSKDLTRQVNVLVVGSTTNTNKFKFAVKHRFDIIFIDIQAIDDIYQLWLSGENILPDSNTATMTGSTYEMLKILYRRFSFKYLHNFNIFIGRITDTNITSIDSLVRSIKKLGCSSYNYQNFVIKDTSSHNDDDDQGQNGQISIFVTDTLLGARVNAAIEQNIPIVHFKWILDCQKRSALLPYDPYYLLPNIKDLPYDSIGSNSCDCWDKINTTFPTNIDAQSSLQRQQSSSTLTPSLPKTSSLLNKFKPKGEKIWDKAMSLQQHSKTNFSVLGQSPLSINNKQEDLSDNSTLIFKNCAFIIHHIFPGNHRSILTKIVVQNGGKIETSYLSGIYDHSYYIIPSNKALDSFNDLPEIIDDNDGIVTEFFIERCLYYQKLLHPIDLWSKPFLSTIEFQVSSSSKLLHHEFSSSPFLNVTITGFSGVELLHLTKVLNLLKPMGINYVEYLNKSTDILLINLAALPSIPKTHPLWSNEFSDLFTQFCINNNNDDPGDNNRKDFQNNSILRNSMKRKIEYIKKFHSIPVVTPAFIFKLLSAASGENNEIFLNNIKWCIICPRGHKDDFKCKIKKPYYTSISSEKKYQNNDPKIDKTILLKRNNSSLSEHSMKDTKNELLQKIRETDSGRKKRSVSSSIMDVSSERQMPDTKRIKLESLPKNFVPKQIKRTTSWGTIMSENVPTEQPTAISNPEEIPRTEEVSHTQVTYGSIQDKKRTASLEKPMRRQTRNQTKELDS

Variants of: B1
Settings: with dpb11_yeast DPB11, P47027

Effect of a mutation on the interaction, disrupting interaction:
MYSFELDKLKIELKTWEHDFIDKNKREPTRDDIKSLRTVRQMYKQYSTLKKKQSLQRQKVDTQESVELPAHKKDHDEVVEIGPTPQVYGKAISIFDMNLAPIKPIYMTFTNNIDVNNDNSKTISNESSPRKTILLKSSPADRTLVAEPISSVKRQLNFQMLNASSTRTPTSSPCKNRNGKLVEIKKCSPTINPPLESGKPSGYYGPNSPLKLDEENIHLNISLNSSTKRRLQIAYPSLQKTPSKDQADISTSFSPSPLIRRPLTKSLIELAREHTEIVKEFGVLQEEDIEEEEEGEEGENGYDEKNHEDDFGLEDELIRPKVVKDIFQEDDDNDDSQAREDTFIRKRPKRRKVIRRLRDNDPETETAGFERDVHKELVKLKRRKVAEFLGSTSQISDTEFEHDPEASSGVVSSEQKPTAKRKGRKKYNLVSNNFRRLKLPKKNRFSNGRWGRR [S100A]
MYSFELDKLKIELKTWEHDFIDKNKREPTRDDIKSLRTVRQMYKQYSTLKKKQSLQRQKVDTQESVELPAHKKDHDEVVEIGPTPQVYGKAISIFDMNLSPIKPIYMTFTNNIDVNNDNSKTISNESSPRKTILLKSSPADRTLVAEPISSVKRQLNFQMLNASSTRAPTSSPCKNRNGKLVEIKKCSPTINPPLESGKPSGYYGPNSPLKLDEENIHLNISLNSSTKRRLQIAYPSLQKTPSKDQADISTSFSPSPLIRRPLTKSLIELAREHTEIVKEFGVLQEEDIEEEEEGEEGENGYDEKNHEDDFGLEDELIRPKVVKDIFQEDDDNDDSQAREDTFIRKRPKRRKVIRRLRDNDPETETAGFERDVHKELVKLKRRKVAEFLGSTSQISDTEFEHDPEASSGVVSSEQKPTAKRKGRKKYNLVSNNFRRLKLPKKNRFSNGRWGRR [T168A]
MYSFELDKLKIELKTWEHDFIDKNKREPTRDDIKSLRTVRQMYKQYSTLKKKQSLQRQKVDTQESVELPAHKKDHDEVVEIGPTPQVYGKAISIFDMNLSPIKPIYMTFTNNIDVNNDNSKTISNESAPRKTILLKSSPADRTLVAEPISSVKRQLNFQMLNASSTRTPTSSPCKNRNGKLVEIKKCSPTINPPLESGKPSGYYGPNSPLKLDEENIHLNISLNSSTKRRLQIAYPSLQKTPSKDQADISTSFSPSPLIRRPLTKSLIELAREHTEIVKEFGVLQEEDIEEEEEGEEGENGYDEKNHEDDFGLEDELIRPKVVKDIFQEDDDNDDSQAREDTFIRKRPKRRKVIRRLRDNDPETETAGFERDVHKELVKLKRRKVAEFLGSTSQISDTEFEHDPEASSGVVSSEQKPTAKRKGRKKYNLVSNNFRRLKLPKKNRFSNGRWGRR [S128A]
MYSFELDKLKIELKTWEHDFIDKNKREPTRDDIKSLRTVRQMYKQYSTLKKKQSLQRQKVDTQESVELPAHKKDHDEVVEIGPTPQVYGKAISIFDMNLSPIKPIYMTFTNNIDVNNDNSKTISNESSPRKTILLKSSPADRTLVAEPISSVKRQLNFQMLNASSTRTPTSSPCKNRNGKLVEIKKCSPTINPPLESGKPSGYYGPNSPLKLDEENIHLNISLNSSTKRRLQIAYPSLQKAPSKDQADISTSFSPSPLIRRPLTKSLIELAREHTEIVKEFGVLQEEDIEEEEEGEEGENGYDEKNHEDDFGLEDELIRPKVVKDIFQEDDDNDDSQAREDTFIRKRPKRRKVIRRLRDNDPETETAGFERDVHKELVKLKRRKVAEFLGSTSQISDTEFEHDPEASSGVVSSEQKPTAKRKGRKKYNLVSNNFRRLKLPKKNRFSNGRWGRR [T241A]
MYSFELDKLKIELKTWEHDFIDKNKREPTRDDIKSLRTVRQMYKQYSTLKKKQSLQRQKVDTQESVELPAHKKDHDEVVEIGPTPQVYGKAISIFDMNLSPIKPIYMTFTNNIDVNNDNSKTISNESSPRKTILLKSSPADRTLVAEPISSVKRQLNFQMLNASSTRTPTSAPCKNRNGKLVEIKKCSPTINPPLESGKPSGYYGPNSPLKLDEENIHLNISLNSSTKRRLQIAYPSLQKTPSKDQADISTSFSPSPLIRRPLTKSLIELAREHTEIVKEFGVLQEEDIEEEEEGEEGENGYDEKNHEDDFGLEDELIRPKVVKDIFQEDDDNDDSQAREDTFIRKRPKRRKVIRRLRDNDPETETAGFERDVHKELVKLKRRKVAEFLGSTSQISDTEFEHDPEASSGVVSSEQKPTAKRKGRKKYNLVSNNFRRLKLPKKNRFSNGRWGRR [S172A]
MYSFELDKLKIELKTWEHDFIDKNKREPTRDDIKSLRTVRQMYKQYSTLKKKQSLQRQKVDTQESVELPAHKKDHDEVVEIGPTPQVYGKAISIFDMNLSPIKPIYMTFTNNIDVNNDNSKTISNESSPRKTILLKSSPADRTLVAEPISSVKRQLNFQMLNASSTRTPTSSPCKNRNGKLVEIKKCSPTINPPLESGKPSGYYGPNAPLKLDEENIHLNISLNSSTKRRLQIAYPSLQKTPSKDQADISTSFSPSPLIRRPLTKSLIELAREHTEIVKEFGVLQEEDIEEEEEGEEGENGYDEKNHEDDFGLEDELIRPKVVKDIFQEDDDNDDSQAREDTFIRKRPKRRKVIRRLRDNDPETETAGFERDVHKELVKLKRRKVAEFLGSTSQISDTEFEHDPEASSGVVSSEQKPTAKRKGRKKYNLVSNNFRRLKLPKKNRFSNGRWGRR [S208A]

Variants of: B1
Settings: with dpb11_yeast DPB11, P47027
Remark: another data set of the same source

Effect of a mutation on the interaction, disrupting interaction:
MYSFELDKLKIELKTWEHDFIDKNKREPTRDDIKSLRTVRQMYKQYSTLKKKQSLQRQKVDTQESVELPAHKKDHDEVVEIGPAPQVYGKAISIFDMNLSPIKPIYMTFTNNIDVNNDNSKTISNESSPRKTILLKSSPADRTLVAEPISSVKRQLNFQMLNASSTRTPTSSPCKNRNGKLVEIKKCSPTINPPLESGKPSGYYGPNSPLKLDEENIHLNISLNSSTKRRLQIAYPSLQKTPSKDQADISTSFSPSPLIRRPLTKSLIELAREHTEIVKEFGVLQEEDIEEEEEGEEGENGYDEKNHEDDFGLEDELIRPKVVKDIFQEDDDNDDSQAREDTFIRKRPKRRKVIRRLRDNDPETETAGFERDVHKELVKLKRRKVAEFLGSTSQISDTEFEHDPEASSGVVSSEQKPTAKRKGRKKYNLVSNNFRRLKLPKKNRFSNGRWGRR [T84A]
